Biological target: T1, PBX1 (residues 233-319) (mouse/human, UniProt P40424 P40424:233-319)
T1 sequence: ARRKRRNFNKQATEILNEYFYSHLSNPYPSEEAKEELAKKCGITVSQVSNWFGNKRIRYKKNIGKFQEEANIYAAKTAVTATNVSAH
Assay: EMSA; binary PBX1/DNA complex; inhibited by compound 31, not by compound 15
Conditions: label: 32P (Klenow fill-in with alpha-32P-dCTP); annealed with overhangs extended by Klenow

B1: HOXPBX-CT probe (dsDNA)
DNA 1: CTCTCCTTTTGATTGATTAA
DNA 2: AGAGCTTAATCAATCAAAAGG
B1: binds.

Reference: US20050153366, “Protein-protein interaction antagonist screening libraries based upon 1,4-disubstituted naphthalenes and related scaffolds” (published 2005)
